Experimental data taken from patent US20260102474A1 (published 2026).
Numbering of substitutions follows the chain as printed.

B1: ACE2-M2-FcKO (Fc fusion)
chain: STIEEQAKYFLDYFNVQAEDLFYQSSLASWNYNTNITEENVQNMNNAGDKWSAFLKEQSTYAQRYPLQEIQNLTVKLQLQALQQNGSSVLSEDKSKRLNTILNTMSTIYSTGKVCNPDNPQECLLLEPGLNEIMANSLDYNERLWAWESWRSEVGKQLRPLYEEYVVLKNEMARANHYEDYGDYWRGDYEVNGVDGYDYSRGQLIEDVEHTFEEIKPLYEHLHAYVRAKLMNAYPSYISPIGCLPAHLLGDMWGRFWTNLYSLTVPFGQKPNIDVTDAMVDQAWDAQRIFKEAEKFFVSVGLPNMTQGFWEYSMLTDPGNVQKAVCHPTAWDLGKGDFRILMCTKVTMDDFLTAHREMGRIQYDMAYAAQPFLLRNGANEGFHEAVGEIMSLSAATPKHLKSIGLLSPDFQEDNETEINFLLKQALTIVGTLPFTYMLEKWRWMVFKGEIPKDQWMKKWWEMKREIVGVVEPVPHDETYCDPASLFHVSNDYSFIRYYTRTLYQFQFQEALCQAAKHEGPLHKCDISNSTEAGQKLFNMLRLGKSEPWTLALENVVGAKNMNVRPLLNYFEPLFTWLKDQNKNSFVGWSTDWSPYADQSIKVRISLKSALGDKAYEWNDNEMYLFRSSVAYAMRQYFLKVKNQMILFGEEDVRVANLKPRISFNFFVTAPKNVSDIIPRTEVEKAIRMSRSRINDAFRLNDNSLEFLGIQPTLGPPNQPPVSSGGGGSGGGGSGGGGSEPKSSDKTHTCPPCPAPPVAGPSVFLFPPKPKDTLMISRTPEVTCVVVGVSHEDPEVKFNWYVDGVEVHNAKTKPREEQYNSTYRVVSVLTVLHQDWLNGKEYKCKVSNKQLPSPIEKTISKAKGQPGQPREPQVYTLPPSRDELTKNQVSLTCLVKGFYPSDIAVEWESNGQPENNYKTTPPVLDSDGSFFLYSKLTVDKSRWQQGNVFSCSVMHEALHNHYTQKSLSLSPGK
B2: ACE2-M1-FcKO (Fc fusion)
chain: B1 chain with Y13K, V16H, Q17E, R64M

Assays:
[1] = molecular target: SARS-COV-2 full-length trimeric spike protein, parental (SARS-COV-2, UniProt P0DTC2 14-1213); test: competition
[2] = molecular target: SARS-COV-2 spike protein on Caco-2 cells infected with the original version of SARS-COV-2 (SARS-COV-2-mNG) (SARS-COV-2, UniProt P0DTC2 14-1273); test: flow

Binder | IC50 [1] | EC50 [2]
B1 | 9.4 nM | 0.48 µg/mL
B2 | 3.8 nM | 0.29 µg/mL
